Like-named read-outs stand apart in the source and are kept apart here.

Experiment [1] has as its target human CD3 expressed on cells (Jurkat cells; human CD4 T cells) (human) (UniProt P07766). The experiment in a line: flow cytometry on Jurkat cells.
Experiment [2] has as its target Cynomolgus Monkey CD3 epsilon protein (Cynomolgus monkey) (UniProt Q95LI5). The experiment in a line: ELISA, antigen coated on plate. On the technique in general: ELISA stands for enzyme-linked immunosorbent assay.
In experiment [3] the target is mouse CD3epsilon protein (mouse) (UniProt P22646). The experiment in a line: ELISA, antigen coated on plate.
Sequence of mouse CD3epsilon protein (mouse) (P22646 22-108 limits assumed): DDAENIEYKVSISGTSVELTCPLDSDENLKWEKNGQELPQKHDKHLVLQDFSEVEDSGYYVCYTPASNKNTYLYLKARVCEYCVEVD
Experiment [4] has as its target Human CD3 epsilon (CD3epsilon) protein (His Tag) (human) (UniProt P07766). The experiment in a line: ELISA, antigen coated on plate.
Experiment [5] concerns the target human CD3 expressed on cells (Jurkat cells; human CD4 T cells) (human) (UniProt P07766). Briefly: flow cytometry on Jurkat cells, one site saturation fit.
For experiment [6] the target is unchanged. Described as above. This is another data set of the same source.
Experiment [7] shares this target. The experiment in a line: flow cytometry on human CD4 T cells. (In flow cytometry, cells or beads pass a laser one at a time.)

Sequence of human CD3 expressed on cells (Jurkat cells; human CD4 T cells) (human) (P07766 23-207): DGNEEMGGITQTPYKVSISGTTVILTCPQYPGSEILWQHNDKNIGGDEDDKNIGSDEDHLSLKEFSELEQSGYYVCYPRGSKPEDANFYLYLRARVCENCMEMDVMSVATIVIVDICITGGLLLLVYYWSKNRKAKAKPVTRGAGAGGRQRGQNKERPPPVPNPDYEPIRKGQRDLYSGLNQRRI
Sequence of Human CD3 epsilon (CD3epsilon) protein (His Tag) (human) (P07766 23-126): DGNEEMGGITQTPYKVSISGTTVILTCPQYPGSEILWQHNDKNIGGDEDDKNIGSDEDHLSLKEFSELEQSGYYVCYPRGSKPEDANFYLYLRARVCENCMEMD
Sequence of Cynomolgus Monkey CD3 epsilon protein (Cynomolgus monkey) (Q95LI5 22-117 limits assumed): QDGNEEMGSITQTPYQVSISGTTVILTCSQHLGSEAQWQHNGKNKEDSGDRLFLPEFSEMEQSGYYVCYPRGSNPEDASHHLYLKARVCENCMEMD

For the substance Benchmark antibody OKT3, the results for the concentration for a half-maximal effect (EC50) in experiment [1] and in experiment [7] were 0.2 nM and 0.202 nM, respectively. Further, the figures for the ELISA A450 in experiment [2], in experiment [3] and in experiment [4] were 0.052 A450, 0.24 A450 and 0.048 A450, respectively. Moreover, the results for the Best fit-Bmax in experiment [5] and in experiment [6] were 9.41e-11 and 6.06e-12, respectively. In addition, the Kd stood at 0.129 nM in experiment [5] and 0.0277 nM in experiment [6].

Negative Control (Table 7): the ELISA A450 in experiment [2] is 0.046 A450; in experiment [3], 0.179 A450; in experiment [4], 0.046 A450.

In turn, WBP331-BMK1 (UCHT1) (antibody) yielded an EC50 in experiment [4] of 0.186 nM.

What is called EC50 is the midpoint of the concentration-response curve. The Kd is the concentration at which binding is half-saturated.

Source of the values: US20200299384A1.
